To fix the notation:
T1: monkey MSLN on HEK293T-monkey MSLN recombinant cells (monkey)
T1 construct: Full-length precursor as transfected; processing on the cell is not described; also called HEK293-monkey MSLN
T1 chain: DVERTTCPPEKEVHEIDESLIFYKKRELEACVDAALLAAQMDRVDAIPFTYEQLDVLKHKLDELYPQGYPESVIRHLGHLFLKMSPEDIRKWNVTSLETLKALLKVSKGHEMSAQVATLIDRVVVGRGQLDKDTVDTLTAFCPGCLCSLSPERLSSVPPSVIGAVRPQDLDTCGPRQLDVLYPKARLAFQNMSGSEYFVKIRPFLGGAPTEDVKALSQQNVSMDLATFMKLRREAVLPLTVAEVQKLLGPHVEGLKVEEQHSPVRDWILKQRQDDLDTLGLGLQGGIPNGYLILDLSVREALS

T2: monkey MSLN full-length protein (NCBI: XP_028696439.1) expressed on HEK293T-monkey MSLN cells (monkey)
T2 construct: Whole encoded precursor
T2 chain: T1 chain

B1: F7.44.20-H3 (scFv, not shown: small tags and cut ends)
scFv: EVQLVQSGAEVKKPGASVKVSCKASGYTFTDYNMDWVRQAPGQGLEWMGDINPSTGGTIYNQKFNGRVTMTEDKSTSTVYMELSSLRSEDTAVYYCARRRIGTGYFDVWGQGTTVTVSSGGGGSGGGGSGGGGSEIVLTQSPATLSLSPGERATLSCSASSSVISSYLSWYQQKPGQSPRLLIYRTSNLASGIPARFSGSGSGTDYTLTISSLEPEDFAVYYCHQWSSFPYTFGGGTKVEIK
notes: also called S009-F7.44.20 humanized antibody VH1 + VL3
B2: F7.44.20-H8 (scFv, not shown: small tags and cut ends)
scFv: B1 scFv with N65Q, Q177S
notes: also called S009-F7.44.20 humanized antibody VH1a + VL4
B3: F7.44.20-H12 (scFv, not shown: small tags and cut ends)
scFv: B1 scFv with T76A, Q177S
notes: also called S009-F7.44.20 humanized antibody VH2 + VL4
B4: F7.44.20-H7 (scFv, not shown: small tags and cut ends)
scFv: B1 scFv with N65Q
notes: also called S009-F7.44.20 humanized antibody VH1a + VL3
B5: F7.44.20-H4 (scFv, not shown: small tags and cut ends)
scFv: B1 scFv with Q177S
notes: also called S009-F7.44.20 humanized antibody VH1 + VL4
B6: F7.44.20-H11 (scFv, not shown: small tags and cut ends)
scFv: B1 scFv with T76A
notes: also called S009-F7.44.20 humanized antibody VH2 + VL3
B7: F7.44.20-H15 (scFv, not shown: small tags and cut ends)
scFv: B1 scFv with N65S, T76A
notes: also called S009-F7.44.20 humanized antibody VH2a + VL3
B8: F7.44.20-H1 (scFv, not shown: small tags and cut ends)
scFv: EVQLVQSGAEVKKPGASVKVSCKASGYTFTDYNMDWVRQAPGQGLEWMGDINPSTGGTIYNQKFNGRVTMTEDKSTSTVYMELSSLRSEDTAVYYCARRRIGTGYFDVWGQGTTVTVSSGGGGSGGGGSGGGGSEIVLTQSPDFQSVTPKEKVTITCSASSSVISSYLSWYQQKPDQSPKLLIYRTSNLASGVPSRFSGSGSGTDFTLTINSLEAEDAATYYCHQWSSFPYTFGGGTKVEIK
notes: also called S009-F7.44.20 humanized antibody VH1 + VL1
B9: F7.44.20-H2 (scFv, not shown: small tags and cut ends)
scFv: B8 scFv with F206Y
notes: also called S009-F7.44.20 humanized antibody VH1 + VL2
B10: F7.44.20-H14 (scFv, not shown: small tags and cut ends)
scFv: B8 scFv with N65S, T76A, F206Y
notes: also called S009-F7.44.20 humanized antibody VH2a + VL2
B11: F7.44.20-H10 (scFv, not shown: small tags and cut ends)
scFv: B8 scFv with T76A, F206Y
notes: also called S009-F7.44.20 humanized antibody VH2 + VL2
B12: F7.44.20-H6 (scFv, not shown: small tags and cut ends)
scFv: B8 scFv with N65Q, F206Y
notes: also called S009-F7.44.20 humanized antibody VH1a + VL2
B13: F7.44.20-H13 (scFv, not shown: small tags and cut ends)
scFv: B8 scFv with N65S, T76A
notes: also called S009-F7.44.20 humanized antibody VH2a + VL1
B14: S009-F7.67.12 (antibody, human IgG1, kappa, V domains shown)
VH: QVQLQQPGTELVKPGASVRLSCRASGYSFSSYWMHWVKQRPGQGLEWLGNINPTTGDINYNEKFRNRATLAVDKSSTTAYLQLTSLTSEDSAVYFCVRHDGFLWGQGTTLTVSS
VL: DIQMTQSPASLSASVGETVTITCRASENIYSYLAWYQQKQGKSPQLLVYYAKTLAEGVSSRFSGSGSGTQFSLKINSLQPEDFGTYYCQHQFGTPRTFGGGTKLEIRR
notes: human-murine chimeric antibody, human IgG1/kappa constant regions
B15: S009-F7.66.12 (antibody, human IgG1, kappa, V domains shown)
VH: QIPLQQSGPELVKPGASVRISCKASDYAFSSSWMNWVKQRPEKGLEWIGRIFVESGNTHYNDKFNGKATLTADKSSRTAYIQLSSLTSEDSAVYFCTRENIFYHGHSSWFAYWGQGTLVTVSA
VL: DIVLTQSPASLVVSLGQRATISCRAGESVDDFGISYVHWYQQKPGQPPKLLIYRAANLESGIPARFSGSGSRTDFTLTINPVETDDVAIYYCQQNNKDPFTFGSGTKLEIKR
notes: as for B14
B16: S009-F7.69.8 (antibody, human IgG1, kappa, V domains shown)
VH: EVHLQQSGPELVKPGASVRIPCKASGYTFTDYNMDWVKQSHGKSLEWIGDINPDNGGTIYTQKFKGKATLTVDKSSSTAYMELRSLTSEDTAVYYCARRLHYYGSSGLDYWGQGTTLTVSS
VL: DIQMTQSPASLSAYVGETVTITCRASGNIHNYLAWYQQKQGKSPQLLVYNAKTLADGVPSRFSGSGSGTQYSLKINSLQPEDFGSYYCQHFWSTVWTFGGGTKLEIKR
notes: as for B14
B17: S009-F8-9.16 (antibody, human IgG1, kappa, V domains shown)
VH: EVHLQQSGPVLVKPGASVKMSCKASGYTFTDYFMNWVKQSHGKSLEWIGVINPHNGYVNYNQKFQGRATLTVDKSSSTVYMELNSLTSEDSAVYHCARSAESAWFAYWGQRTLVTVSA
VL: DVLMTQTPLSLPVSLGDQVSISCRSSQSIVHVKGNTYLEWYLQKPGQSPELLIYKVSNRFSGVPDRFSGGGSGTDFTLKISRVEPEDLGVYYCFQGSHLPYTFGGGTKLEIKR
notes: as for B14

Changes are numbered by the printed parent chain.

T7 sequence (Q13421 495-614): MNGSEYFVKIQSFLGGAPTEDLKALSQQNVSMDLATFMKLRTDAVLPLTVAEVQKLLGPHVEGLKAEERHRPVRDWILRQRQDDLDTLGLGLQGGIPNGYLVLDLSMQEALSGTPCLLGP

The target of the first experiment is T3, human MSLN on OVCAR3 tumor cells (human, UniProt Q13421 296-598).
T3 construct: whole, on cells; also called human MSLN protein
T3 sequence (Q13421 other isoform, or with tags, fused parts or gaps): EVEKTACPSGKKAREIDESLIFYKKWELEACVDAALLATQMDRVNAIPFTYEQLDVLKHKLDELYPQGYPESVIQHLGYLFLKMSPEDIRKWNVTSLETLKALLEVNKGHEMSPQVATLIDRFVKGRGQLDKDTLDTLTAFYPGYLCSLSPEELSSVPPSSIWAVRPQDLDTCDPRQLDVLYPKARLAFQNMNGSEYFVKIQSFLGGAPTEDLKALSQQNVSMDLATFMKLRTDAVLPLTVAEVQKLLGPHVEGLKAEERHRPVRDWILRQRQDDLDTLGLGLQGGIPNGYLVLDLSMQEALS
Nature of the experiment: FACS, OVCAR3 cells.
Take B1: the EC50 (usually the midpoint of the concentration-response curve) was 0.69 nM and the Maximum_MFI stood at 1810 MFI.
With B2, the EC50 was found to be 1.04 nM and the Maximum_MFI amounted to 1880 MFI.
As for B3, the midpoint of the response, the EC50, lay at 1.5 nM and the Maximum_MFI was determined as 2100 MFI.
Regarding B4, a half-maximal response (EC50) required 1.11 nM and the Maximum_MFI turned out to be 1840 MFI.
With B5, the EC50 came out at 1.26 nM and the Maximum_MFI was found to be 1680 MFI.
As to B6, it took 0.61 nM to reach a half-maximal effect (EC50) and the Maximum_MFI came out at 1950 MFI.
Regarding B7, the EC50 was 1.77 nM and the Maximum_MFI was determined as 1930 MFI.
Turning to B8, the midpoint of the response, the EC50, lay at 0.4 nM and the Maximum_MFI came out at 1820 MFI.
The molecule B9 showed an EC50 of 0.99 nM and a Maximum_MFI of 1820 MFI.
For B10, in that order: 1.83 nM and 2140 MFI.
On to B11, for which the midpoint of the response, the EC50, lay at 1.21 nM and the Maximum_MFI stood at 2320 MFI.
For the molecule B12, the EC50 worked out at 1.6 nM and the Maximum_MFI stood at 1830 MFI.
Molecule B13 yielded an EC50 of 1.33 nM and a Maximum_MFI of 2150 MFI.

A further experiment deals with T1, monkey MSLN on HEK293T-monkey MSLN …. Nature of the experiment: FACS, HEK293T-monkey MSLN cells. On the technique in general: In flow cytometry, cells or beads pass a laser one at a time.
B1: the EC50 was determined as 7.34 nM and the Maximum_MFI was determined as 7000 MFI.
Consider B2, for which the EC50 amounted to 7.09 nM and the Maximum_MFI is 6320 MFI.
Take B3: the EC50 came to 10.3 nM and the Maximum_MFI turned out to be 6670 MFI.
For B4, in that order: 9.24 nM and 6130 MFI.
For B5, the EC50 turned out to be 10.4 nM and the Maximum_MFI was determined as 6450 MFI.
Consider B6, for which the EC50 turned out to be 3.74 nM and the Maximum_MFI stood at 7210 MFI.
The corresponding values for B7 are 4.47 nM and 8090 MFI.
For B8, the EC50 was determined as 6.05 nM and the Maximum_MFI is 6550 MFI.
For B9, in that order: 5.5 nM and 6950 MFI.
On to B10, for which the concentration for a half-maximal effect (EC50) is 7.37 nM and the Maximum_MFI was found to be 8130 MFI.
With B11, the EC50 was 4.25 nM and the Maximum_MFI came out at 9020 MFI.
For the molecule B12, the EC50 amounted to 15 nM and the Maximum_MFI is 6020 MFI.
Take B13: the EC50 amounted to 2.35 nM and the Maximum_MFI turned out to be 9320 MFI.

A further experiment has as its target T4, human MSLN protein endogenously expressed on OVCAR3 tumor cells (human, UniProt Q13421 296-598).
T4 construct: whole, on cells; Endogenous target on OVCAR3 cells; kept apart from the recombinant full-length construct; also called mesothelin
Nature of the experiment: FACS on OVCAR3 cells.
T4 sequence (Q13421 other isoform, or with tags, fused parts or gaps): as above
Turning to B14, the EC50 came to 0.37 nM and the “Maximum mean fluorescence intensity” value worked out at 29100.
As to B15, the EC50 was found to be 0.87 nM and the “Maximum mean fluorescence intensity” value amounted to 21900.
On to B16, for which the EC50 stood at 0.36 nM and the “Maximum mean fluorescence intensity” value is 16600.

For another experiment, the target named is T5, human MSLN-R3 on HEK293T-hMSLN-R3 recombinant cells (human, UniProt Q13421 487-606).
T5 construct: the C-terminal limit is uncertain; also called human MSLN-R3 membrane protein
T5 sequence (Q13421 495-614): as the sequence (Q13421 495-614) above
Nature of the experiment: FACS, HEK293T-hMSLN-R3 cells.
In the case of B1, the EC50 was 1.57 nM and the Maximum_MFI amounted to 1490 MFI.
B2: the EC50 was found to be 1.95 nM and the Maximum_MFI amounted to 1650 MFI.
As to B3, the EC50 stood at 2.88 nM and the Maximum_MFI was determined as 1410 MFI.
Take B4: the EC50 came to 2.12 nM and the Maximum_MFI turned out to be 1510 MFI.
For B5, the EC50 was determined as 2.64 nM and the Maximum_MFI came out at 1470 MFI.
The corresponding values for B6 are 1.14 nM and 1680 MFI.
On to B7, for which the EC50 was 0.91 nM and the Maximum_MFI turned out to be 1500 MFI.
Consider B8, for which the EC50 was 1.72 nM and the Maximum_MFI worked out at 1750 MFI.
For B9, in that order: 1.71 nM and 1690 MFI.
For the molecule B10, the EC50 stood at 1.52 nM and the Maximum_MFI is 1440 MFI.
For B11, in that order: 0.88 nM and 1470 MFI.
On to B12, for which the EC50 came out at 3.44 nM and the Maximum_MFI was 1540 MFI.
For B13, in that order: 0.63 nM and 1600 MFI.

A further experiment concerns the target T6, human MSLN protein endogenously expressed on OVCAR3 tumor cells (human, UniProt Q13421 296-598).
T6 construct: whole, on cells; endogenous expression on a tumor cell line; also called human mesothelin
Nature of the experiment: FACS on OVCAR3 cells.
T6 sequence (Q13421 other isoform, or with tags, fused parts or gaps): as the sequence (Q13421 other isoform, or with tags, fused parts or gaps) above
With B17, the EC50 worked out at 0.86 nM and the “Maximum mean fluorescence intensity” value is 5380.

Another experiment deals with T2, monkey MSLN full-length protein (NCBI: …). Nature of the experiment: FACS on HEK293T-monkey MSLN cells.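 Further: flow cytometry binding of chimeric antibodies to the cells, with a 2 h incubation on ice.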
As for B14, the EC50 stood at 0.36 nM and the “Maximum mean fluorescence intensity” value amounted to 59300.
Consider B15, for which the “Maximum mean fluorescence intensity” value was determined as 60 and the binding result is “no binding”.
For the molecule B16, the midpoint of the response, the EC50, lay at 12.5 nM and the “Maximum mean fluorescence intensity” value is 9230.

The next experiment addresses T7, human MSLN-R3 protein (Met487-Ser606 of NCBI AAH09272.1) expressed on HEK293T-hMSLN-R3 cells (human, UniProt Q13421 487-606).
T7 construct: also called Region3
Nature of the experiment: FACS on HEK293T-hMSLN-R3 cells.
As for B14, the EC50 was determined as 0.14 nM and the “Maximum mean fluorescence intensity” value stood at 6930.
On to B15, for which the response was half-maximal at 0.38 nM (EC50) and the “Maximum mean fluorescence intensity” value came out at 5900.
Consider B16, for which the EC50 is 0.14 nM and the “Maximum mean fluorescence intensity” value came out at 6590.

In the next experiment the target is T8, human MSLN-R3 protein expressed on HEK293T cells (HEK293T-hMSLN-R3) (human, UniProt Q13421 487-606).
T8 construct: C-terminal limit uncertain
T8 sequence (Q13421 495-614): as the sequence (Q13421 495-614) above
Nature of the experiment: FACS on HEK293T-hMSLN-R3 cells.
Regarding B17, the EC50 is 0.53 nM and the “Maximum mean fluorescence intensity” value was 128000.
